Measured values from patent US20160106863A1 (IMMUNOGEN, published 2016).

Experiments:
T47D cells (human) = T47D cells (human) (UniProt P15328); assay: flow cytometry binding on T47D cells
EGFR = EGFR (UniProt P00533 25-1210, limits assumed); assay: cell-based or functional assay

Chain of T47D cells (human) (P15328 25-234, stated change not applied): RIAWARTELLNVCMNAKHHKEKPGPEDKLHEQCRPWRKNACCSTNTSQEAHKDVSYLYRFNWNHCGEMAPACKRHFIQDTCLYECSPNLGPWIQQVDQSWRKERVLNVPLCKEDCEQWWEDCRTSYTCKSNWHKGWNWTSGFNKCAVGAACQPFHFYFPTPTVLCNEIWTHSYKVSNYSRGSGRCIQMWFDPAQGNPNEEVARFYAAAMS

huMOV19 antibody was tested, and the EC50 (T47D cells (human)) was 0.203 nM.

B1: huML66-sulfo-SPDB-1d conjugate (antibody, human IgG1, kappa, V domains shown)
VH: QVQLQESGPGLVKPSETLSLTCTVSGLSLASNSVSWIRQPPGKGLEWMGVIWNHGGTDYNPSIKSRLSISRDTSKSQVFLKMNSLTAADTAMYFCVRKGGIYFDYWGQGVLVTVSS
VL: DTVLTQSPSLAVSPGERATISCRASESVSTLMHWYQQKPGQQPKLLIYLASHRESGVPARFSGSGSGTDFTLTIDPMEAEDTATYYCQQSRNDPWTFGQGTKLELKR
modifications: compound 1d linked via sulfo-SPDB linker, average of 3.0 molecules per antibody; attachment residues not stated
With B1 the “EC50 in pM, in vitro cytotoxicity (WST-8), Detroit562 cells” value (EGFR) was 110 pM, the “EC50 in pM, in vitro cytotoxicity (WST-8), Detroit562 cells, + block (excess unconjugated antibody)” value (EGFR) was 960 pM and the “EC50 in pM, in vitro cytotoxicity (WST-8), NCI-H292 cells” value (EGFR) was 20 pM. For the same molecule, the “EC50 in pM, in vitro cytotoxicity (WST-8), NCI-H292 cells, + block (excess unconjugated antibody)” value (EGFR) was 690 pM, the “EC50 in pM, in vitro cytotoxicity (WST-8), NCI-H1703 cells” value (EGFR) was 70 pM and the “EC50 in pM, in vitro cytotoxicity (WST-8), NCI-H1703 cells, + block (excess unconjugated antibody)” value (EGFR) was 1310 pM.
